For orientation: stoichiometry N means a count of units in the complex or per binding partner.

Sequences and labels used below:
B1: Ssn6 Sc3T (N175), the 175 amino-terminal residues of Ssn6 (domain or fragment, yeast, UniProt P14922 1-175, looked up)
chain: MNPGGEQTIMEQPAQQQQQQQQQQQQQQQQAAVPQQPLDPLTQSTAETWLSIASLAETLGDGDRAAMAYDATLQFNPSSAKALTSLAHLYRSRDMFQRAAELYERALLVNPELSDVWATLGHCYLMLDDLQRAYNAYQQALYHLSNPNVPKLWHGIGILYDRYGSLDYAEEAFAK
notes: Ssn6 (also known as Cyc8), yeast, the 175 amino-terminal residues: NTpolyQ tail and TPRs 1 to 3; One molecule stands for both two-hybrid forms of the same fragment: LexA-Sc3T as bait and Sc3T-Vp16 as prey; A chain carries either LexA or Vp16, never both; The LexA form was also used in the repression assay; also called LexA-Ssn6 Sc3T; LexA-Sc3T (N175); source: yeast two-hybrid fusion (LexA hybrid …)
B4: Tup1 N72, the Ssn6-interaction and Tup1 oligomerization domain (domain or fragment, yeast, UniProt P16649 1-72, looked up)
chain: MTASVSNTQNKLNELLDAIRQEFLQVSQEANTYRLQNQKDYDFKMNQQLAEMQQIRNTVYELELTHRKMKDA
notes: One molecule stands for both two-hybrid forms: LexA-Tup1 N72 as bait and Tup1 N72-Vp16 as prey; also called LexA-Tup1 N72; Tup1 N72-Vp16; source: yeast two-hybrid fusion (LexA hybrid from YCp91; Vp16 hybrid from YEp92)

The target in data set [1] is B4. Put plainly: cell-based or functional assay.
For data set [2], the target named is B4. The data set can be described thus: two-hybrid; LexA hybrids as DNA-binding baits, Vp16 or Gal4 activation domain hybrids as preys; wild-type yeast strain; lacZ reporter JK103 with four LexA operators upstream of the GAL1 TATA element; beta-galactosidase activity in Miller units, average of at least three transformants. Conditions: partners not purified.
Data set [3] addresses B1. The data set is described as above. Conditions: partners not purified.
Data set [4] deals with the molecule itself. The data set can be described thus: SEC; Biogel P100 gel filtration in 20 mM phosphate buffer pH 8.0, 300 mM NaCl, 1 mM DTT; calibrated with protein standards; self-association of the fragment. For orientation: In gel filtration, larger molecules generally elute earlier.
Data set [5] deals with the molecule itself. Put plainly: two-hybrid; LexA hybrids as DNA-binding baits, Vp16 or Gal4 activation domain hybrids as preys; wild-type yeast strain; lacZ reporter JK103 with four LexA operators upstream of the GAL1 TATA element; beta-galactosidase activity in Miller units, average of at least three transformants.

For the molecule B1, in data set [1], the “fold repression of the 4Lop-CYC1 lacZ reporter by LexA-Ssn6 Sc3T in the wild-type strain (endogenous Tup1)” value is 12 fold. This molecule returned a beta-galactosidase activity in data set [2] of 80 Miller units.

B2: Ssn6 Δ45 (amino acids 46-181), Vp16 activation hybrid (domain or fragment, yeast, UniProt P14922 46-181, looked up)
chain: AETWLSIASLAETLGDGDRAAMAYDATLQFNPSSAKALTSLAHLYRSRDMFQRAAELYERALLVNPELSDVWATLGHCYLMLDDLQRAYNAYQQALYHLSNPNVPKLWHGIGILYDRYGSLDYAEEAFAKVLELDP
notes: Ssn6 (also known as Cyc8), yeast, amino acids 46-181; lacks the entire NTpolyQ tail (1-45); the four N-terminal TPRs; also called Ssn6 Δ45-Vp16; Ssn6 Δ45-Vp1; source: yeast two-hybrid fusion (YEp92)
Regarding B2, the “fold repression of the 4Lop-CYC1 lacZ reporter by LexA-Ssn6 Δ45 in the wild-type strain (endogenous Tup1)” value in data set [1] amounted to 1 fold. The same molecule yielded a beta-galactosidase activity in data set [3] of 122 Miller units.

B3: Ssn6 Δ45 (amino acids 46-181), purified recombinant fragment (domain or fragment, yeast, UniProt P14922 46-181, looked up)
chain: AETWLSIASLAETLGDGDRAAMAYDATLQFNPSSAKALTSLAHLYRSRDMFQRAAELYERALLVNPELSDVWATLGHCYLMLDDLQRAYNAYQQALYHLSNPNVPKLWHGIGILYDRYGSLDYAEEAFAKVLELDP
notes: Ssn6 (also known as Cyc8), yeast, amino acids 46-181; the four N-terminal TPRs, without the NTpolyQ tail; Cloned in pGEX-2T; GST was removed with thrombin on the column; also called GST-Δ45; source: E. coli BL21(DE3), purified (Glutathione Sepharose 4B, thrombin digestion, Biogel P100 gel filtration)
For B3, the “stoichiometry N” value in data set [4] was ~3. For the molecule B4, the beta-galactosidase activity in data set [3] is 51 Miller units; in data set [5] it was 56 Miller units.

B5: Ssn6 Δ29 (amino acids 30 to 180) (domain or fragment, yeast, UniProt P14922 30-180, looked up)
chain: QAAVPQQPLDPLTQSTAETWLSIASLAETLGDGDRAAMAYDATLQFNPSSAKALTSLAHLYRSRDMFQRAAELYERALLVNPELSDVWATLGHCYLMLDDLQRAYNAYQQALYHLSNPNVPKLWHGIGILYDRYGSLDYAEEAFAKVLELD
notes: Ssn6 (also known as Cyc8), yeast, amino acids 30 to 180; lacks residues 1-29 of the NTpolyQ tail and contains three intact TPRs; also called Ssn6 Δ29-Gal4; LexA-Ssn6 Δ29; source: yeast two-hybrid fusion (clone isolated from a Gal4pAD yeast genomic library, pACTII)
For the molecule B5, the “fold repression of the 4Lop-CYC1 lacZ reporter by LexA-Ssn6 Δ29 in the wild-type strain (endogenous Tup1)” value in data set [1] was determined as 1 fold. Further, in data set [3], the beta-galactosidase activity stood at 93 Miller units.

Values taken from publication PMC5650148, “Ssn6-Tup1 global transcriptional co-repressor: Role of the N-terminal glutamine-rich region of Ssn6” (PLoS ONE, 2017).
